{"source": "paper PMC2885457", "key": {"[1]": {"biological_target": "Giardia lamblia tryptophanyl-tRNA synthetase (Giardia lamblia (strain WB))", "test": "SEC"}, "[2]": {"biological_target": "Giardia lamblia tryptophanyl-tRNA synthetase (Giardia lamblia (strain WB))", "test": "SEC", "remark": "listed apart in the source"}}, "note": "Like-named read-outs stand apart in the source and are kept apart here."}
{"substance": "Giardia lamblia tryptophanyl-tRNA synthetase (enzyme)", "values": [{"measurement": "stoichiometry N", "setting": "[1]", "value": 2}, {"measurement": "stoichiometry N", "setting": "[2]", "value": 2}]}
